Assay results reported in US12534533B2, “Anti-chemokine like receptor 1 humanized antibodies and their therapeutic applications” (OSE IMMUNOTHERAPEUTICS, priority 2019, dated 2026).
Changes are numbered by the printed parent chain.

How the values were obtained:
Mice dendritic cells = experiment: DCs maturation and differentiation, activation markers by FACS; format: cell-based; details: compared to the excipient or isotype control; FIG. 16
Experimental: FIG. 1. Effect of the anti-CMKLR1 variants 1G1, 2G1, 3G1 and 4G1 chimeric antibodies on the DCs maturation and differentiation. Mice dendritic cells were incubated during maturation phase (24 h or 48 h) followed by a differentiation phase with excipient or RvE1 or anti-CMKLR1 antibodies variants (mutations on positions 1 and 2 of SEQ ID No. 8, corresponding to the VH-CDR3: 1G1 (LL), 2G1 (LI), 3G1 (IL) or 4G1 (II) or isotype controls (hIgG1 or mIgG)). Cells were then stained for FACS analysis with cell marker antibodies: A. CD80-PE; B. CD86-FITC; C. CD103-PerCPCy5.5; D. I/Ab-APC. Mean of Fluorescence was determined in each condition. E and F represent the viability of the cells measured by FACS using LIVE/DEAD® kit from Life Technologies in each condition after 24 or 48 hours of maturation respectively.
FIG. 16. Study of the myeloid cell activation markers after CMKLR1 pathway activation. Dendritic cells incubated in excipient, RvE1, 2G1 or isotype control (hIgG1) were then stained for FACS analysis with marker antibodies: A. CD80-PE. B. CD86-FITC. C. CD103-PerCPCy5.5. D. CD40-PeCy7. E. I/Ab-APC. Mean of Fluorescence was determined in each condition.
Bone marrow cells were harvested and cultured in RPMI medium supplemented with 10% FBS, glutamine and antibiotics and the dendritic cell differentiation was induced by GM-CSF at 20 ng/ml for 7 days. Then, immature dendritic cells (iDC) were collected and cultured for 24 hours with LPS (100 ng/ml) to induce the maturation from iDC to mDC. Treatments were added during differentiation and maturation at 2 μg/ml.
Dendritic cells were resuspended in PBS-FBS-EDTA and incubated with live and dead (LIVE/DEAD® Fixable Dead Cell Stains Yellow-Life Technologies) for 30 minutes on ice. Staining of CD11c-BV711, CD11b-APCCy7, I/Ab-APC, CD103-PerCPCy5.5, CCR7-V450, CD40-PeCy7, CD80-PE, CD86-FITC (all provided by BD Pharmingen) were performed.

colitis induced by TNBS = experiment: acute inflammatory colitis model induced by TNBS; format: in vivo, mice; details: RvE1 1 μg per mouse daily, 2G1 10 μg per mouse; FIG. 3
Experimental: FIG. 3. Effect of an anti-CMKLR1 antibody on a mice acute inflammatory colitis model induced by TNBS. Mice received 200 μL of the haptenating agent TNBS at 5% in 50% ethanol on day 0 and then were injected with isotype control hIgG1 (10 μg per mouse) (x), RvE1 (1 μg per mouse) daily (●), or 2G1 antibody (10 μg per mouse) three times (□) for 5 days, or non-treated (wild type animals) (▴). Mice were sacrificed colon length was measured in each condition.
Colitis was induced in 8-10 weeks-old-C57Bl/6 male mice by intrarectal injection of 200 μL of the haptenating agent TNBS at 5% in 50% ethanol on day 0. Treatments were injected intra-peritoneally; RvE1 (1 μg per mouse) daily for three days, or 2G1 antibody (10 μg per mouse) twice for 3 days. Colitis follow-up consisting of body weight and stool score (0: normal stool; 4: blood in stool) parameters were performed daily (data not represented). When mice are euthanized, colon length representing the pathology severity was measured.

[1] = test system: peritonitis induced by Zymosan A; experiment: peritonitis model (Zymosan A); format: in vivo, mice; details: vs isotype control
Experimental: FIG. 7. Effect of an anti-CMKLR1 antibody on a mice peritonitis model. Preventive injection of anti-CMKLR1 was performed before Zymosan A injection (1 mg per mouse in 1 mL): RvE1 (1 μg per mouse) (●), 2G1 antibody (10 μg per mouse) (□) or isotype control antibody (x). A. PMN numbered during the first 50 hours after Zymosan A injection. B. Macrophages numbered during the first 50 hours after Zymosan A injection. C. Resolution index.
Common peritonitis is induced by intraperitoneal injection of Zymosan A® (1 mg per mouse in 1 mL). Preventive injection of anti-CMKLR1 was performed 5 minutes before Zymosan A injection: RvE1 (1 μg per mouse), 2G1 antibody (10 μg per mouse). Murine peritoneal polymorphonuclear neutrophil (PMN) and macrophages were collected at 2-4-8-16-24 and 48 h after Zymosan A injection and numbered by flow cytometry analysis to determinate the resolution index (Bannenberg et al., 2005).

[2] = biological target: T1, Biot-C7 peptide (human ChemR23 peptide, SEQ ID No. 60) (Homo sapiens, UniProt Q99788); experiment: activity ELISA assay, binding of biotinylated C7 peptide; details: compared to wild-type 2G1; FIG. 23, FIG. 33
T1 construct: purchased synpeptide; host or cells: chemical synthesis
T1 sequence (Q99788 275-307 limits assumed): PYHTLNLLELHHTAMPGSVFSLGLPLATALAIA
From the text: FIG. 23. Binding recognition of C7 peptide by humanized anti-CMKLR1 derived from 2G1. Binding of C7biot in the supernatant of CHO cells transfected with different combinations of heavy and light chains (VHWT+VLWT: combination of SEQ ID No. 37 and SEQ ID No. 49; HCLC: combination of SEQ ID No. 42 and SEQ ID No.52; HDLC: combination of SEQ ID No. 43 and SEQ ID No.52; HCLD: combination of SEQ ID No. 42 and SEQ ID No.53; HDLD: combination of SEQ ID No. 43 and SEQ ID No.53).
FIG. 24. ED50 of anti-CMKLR1 derived from 2G1 antibody. 2G1 wt: HALA: combination of SEQ ID No. 41 and SEQ ID No. 50; combination of SEQ ID No. 37 and SEQ ID No. 49; HCLC: combination of SEQ ID No. 42 and SEQ ID No.52; HDLC: combination of SEQ ID No. 43 and SEQ ID No.52; HCLD: combination of SEQ ID No. 42 and SEQ ID No.53; HDLD: combination of SEQ ID No. 43 and SEQ ID No.53.
FIG. 33—Binding of purified antibodies on human ChemR23 peptide by ELISA assay (A), with ED50 concentration (ng/ml) (B). For activity ELISA assay, donkey anti-human IgG, Fc specific (Jackson Immunoresearch; USA; reference 709-005-098) was immobilized on plastic at 1.3 μg/ml in borate buffer (pH9) and purified antibody was added to measure binding in BSA1% buffer, compared to wild-type 2G1.
For activity ELISA assay, donkey anti-human IgG, Fc specific (Jackson Immunoresearch; USA; reference 709-005-098) was immobilized on plastic at 1.3 μg/ml in borate buffer (pH9) and purified antibody were added to measure binding in BSA1% buffer, compared to wild-type 2G1.
For activity ELISA assay, donkey anti-human IgG, Fc specific (Jackson Immunoresearch; USA; reference 709-005-098) was immobilized on plastic at 1.3 μg/ml in borate buffer (pH9) and purified antibody was added to measure binding in BSA1% buffer, compared to wild-type 2G1.

[3] = test system: PMN from healthy volunteers; experiment: Percentage of dead PMN (mortality of neutrophils) on coated antibodies; format: cell-based, human
Experimental: […] Mortality of PMN was analyzed by incubating PMN with specific markers of the mortality and viability and then counted by picture analysis.
(§1) FIG. 36—Increase of dead PMN neutrophils in vitro with anti-ChemR23 antibodies coated. PMN from healthy volunteers were incubated in culture medium with coated HEF-LDT52S, HEF-LEF and HDLD antibody variants at 10 μg/mL for 24 h and stained either with a dead/viability kit (LIVE/DEAD (Invitrogen)). The percentages of positive cells were obtained by analyzing the pictures with Fiji software. Isotype control was added as control.
(§2) PMN from healthy volunteers were incubated in culture medium with coated Ab at 10 μg/mL for 24 h or 5 h and stained either with a dead/viability kit (LIVE/DEAD (Invitrogen)) or a specific marker of reactive oxygen species (ROS) respectively. The percentages of positive cells were obtained by analyzing the pictures with ImageJ software.
as §1, with “PMN” for “FIG. 36—Increase of dead PMN neutrophils in vitro with anti-ChemR23 antibodies coated. PMN”

[4] = test system: Caspase-3 in PMN from healthy volunteers; experiment: Caspase-3 expression in PMN by Western Blot; format: cell-based, human; details: coated Ab at 10 μg/mL, FIG. 26B
Experimental: (§3) Neutrophils were isolated from blood of healthy volunteers and cultured for 24 h (Mortality analysis), or 4 h, 6 h, 11 h (Caspase-3 assay), or 5 h (ROS assay) on coated Iso ctrl (cross), chimeric anti-ChemR23 2G1 (square) or different humanized versions of the 2G1 (diamonds). Mortality of PMN was analyzed by incubating PMN with specific markers of the mortality and viability and then counted by picture analysis.
PMN from healthy volunteers were incubated in culture medium with coated Ab at 10 μg/mL for different times and collected for Caspase-3 staining analyzed by Western Blot. The intensity of Capase-3 expression was calculated on WB.

[5] = test system: ROS production by PMN from healthy volunteers; experiment: ROS test in PMN; format: cell-based, human; details: coated Ab at 10 μg/mL, after 5 h; FIG. 26C
Experimental: as §3, §2

CC[C@@H](O)/C=C/C=C\C[C@@H](O)/C=C/C=C/C=C\[C@@H](O)CCCC(=O)O [RvE1, Resolvin E1, reference compound]
expression of CD80, CD86, CD103, CD40 and IAb (Mice dendritic cells): strong decrease
colon length (colitis induced by TNBS): the same as normal animal
PMNs number ([1]; first 50 hours after Zymosan A, FIG. 7A): slightly less
Macrophages number ([1]; first 50 hours after Zymosan A, FIG. 7B): slightly less
resolution index ([1]; FIG. 7C): better resolution index

B1: HCLC: humanized 2G1 variant: combination of SEQ ID No. 42 and SEQ ID No. 52 (antibody, V domains shown)
VH: EVQLVESGGGLVQPGGSLRLSCAASGFTFSSYGMSWVRQAPGKGLELVATINRYGGSTYYAASVKGRFTISRDNSKNTLYLQMNSLRAEDTAVYYCPKLIYYGNEGDSWGQGTLVTVSS
VL: AIQLTQSPSSLSASVGDRVTITCRASQSVSFLHWYQQKPGKAPKRWIYDATKLTSGVPSRFSGSGSGTDFTLTISSLQPEDFATYYCQQWNSKPPLTFGGGTKVEIK
binding activity to antigen-specific peptides (C7 peptide) [2]: even better than the germline antibody HALA and the wild type antibody 2G1

B2: HCLD: humanized 2G1 variant: combination of SEQ ID No. 42 and SEQ ID No. 53 (antibody, V domains shown)
VH: B1 VH
VL: B1 VL with N91Q
binding activity to antigen-specific peptides (C7 peptide) [2]: even better than the germline antibody HALA and the wild type antibody 2G1

B3: HEF-LEF: humanized 2G1 variant: HEF (SEQ ID NO: 91) with LEF (SEQ ID NO: 55) (antibody, V domains shown)
VH: B1 VH with G33A, A49S, N52S, R53G, Y54S
VL: B1 VL with W46L, T51S, T54E, N91Q
mortality of PMN (percentage of dead PMN) ([3]; coated Ab at 10 μg/mL, 24 h, FIG. 26, FIG. 36): accelerate the death of PMN

B4: HDLC: humanized 2G1 variant: combination of SEQ ID No. 43 and SEQ ID No. 52 (antibody, V domains shown)
VH: B1 VH with G33A
VL: B1 VL
binding activity to antigen-specific peptides (C7 peptide) [2]: even better than the germline antibody HALA and the wild type antibody 2G1

B5: HALA: humanized 2G1 germline antibody: combination of SEQ ID No. 41 and SEQ ID No. 50 (antibody, V domains shown)
VH: B1 VH with A61P, A62D, K98R
VL: B1 VL with R24S, Q27S, L32M, A50T, F70Y
percentage of dead cells ([3]; at 48 hours, compared with IgG1 control): similar
caspase-3 cleavage ([4]; 4 h, 6 h, 11 h): increases caspase-3 cleavage
caspase-3 activity [4]: higher effect on caspase 3 activity as compared to the 2G1 antibody
ROS production by PMN [5]: increase the ROS production
